Measured values taken from patent US20150266963A1 (ARGEN X B V, published 2015).

Columns and labels:
[1] = molecular target: T1, human CD70 expressed on the surface of cells (human, UniProt P32970 1-193); assay: FACS MFI at 37 C, A549 cells; reference SGN70
T1 construct: whole, on cells; also called cell surface expressed CD70; CD70 on cells
T1 sequence (looked up): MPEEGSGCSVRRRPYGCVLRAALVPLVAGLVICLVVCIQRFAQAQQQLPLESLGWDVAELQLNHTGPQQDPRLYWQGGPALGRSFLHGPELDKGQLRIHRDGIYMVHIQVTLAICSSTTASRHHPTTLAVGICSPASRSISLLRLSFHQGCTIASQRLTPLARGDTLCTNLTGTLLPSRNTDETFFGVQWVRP
Description: (§1) Several cancer cell lines were tested by FACS analysis for binding of ARGX-110 and SGN70 (described in US2010/0129362) at saturating mAb concentrations (at least 2 μg/ml). This was either done at 4° C. (1 hour incubation of cells with mAbs) or at 37° C. (15 minutes incubation of cells with mAbs). Binding was detected using anti-hIgG1-Fc-FITC (AF006, Binding Site) or anti-hIgG1-Fc-PE antibody (eBioscience, 12-4998). Fluorescence was measured using a flow cytometer.

[2] = molecular target: T1, human CD70 expressed on the surface of …; assay: FACS MFI at 37 C, L428 cells; reference SGN70
Description: as §1

[3] = molecular target: T1, human CD70 expressed on the surface of …; assay: FACS MFI at 37 C, Mec1 cells; reference SGN70
Description: as §1

[4] = molecular target: T1, human CD70 expressed on the surface of …; assay: FACS MFI at 37 C, 786-O cells; reference SGN70
Description: as §1

[5] = molecular target: T1, human CD70 expressed on the surface of …; assay: FACS MFI at 37 C, MHHPREB1 cells; reference SGN70
Description: as §1

[6] = molecular target: T2, recombinant human CD70 (Flag-TNC-CD70) (human, UniProt P32970 39-193); assay: ELISA; Flag-TNC-CD70 captured by anti-Flag mAb; anti-human-Fc-HRP
T2 construct: extracellular domain; Captured by anti-Flag mAb in ELISA; as 'recombinant human CD70' immobilised on Biacore CM5 chips; TNC is for trimerisation; also called recombinant CD70; human recombinant CD70; not shown: Flag tag and TNC trimerisation domain
T2 sequence (looked up): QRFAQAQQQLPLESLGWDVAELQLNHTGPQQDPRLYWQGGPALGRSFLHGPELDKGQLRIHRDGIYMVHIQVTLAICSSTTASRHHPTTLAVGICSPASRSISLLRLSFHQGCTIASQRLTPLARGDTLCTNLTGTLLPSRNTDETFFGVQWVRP
Description: A Maxisorb (Nunc) microtiter plate was coated with 3.5 μg/ml mouse M2 anti-Flag mAb (Sigma Aldrich, F3165) and the different chimeras were captured. A dilution series of the CD70 mAbs to be tested was applied starting at a concentration of 10 μg/ml and making 3-fold dilutions. After 2 hours, binding was detected using anti-human-Fc-HRP at a 16000-fold dilution. Staining was done with ABTS and OD at 405 nm was measured. As a positive control, CD27-Fc was applied which is able to bind to both human and mouse CD70 with good affinity as well as to the chimeric human-mouse CD70 variants.

[7] = molecular target: T1, human CD70 expressed on the surface of …; assay: flow cytometry on U266 cells, goat anti human IgG1 FITC [panel U266]
[8] = molecular target: T3, rhesus CD70 on LCL8664 cells (rhesus, UniProt F7GPA5 123-316); assay: flow cytometry on rhesus LCL8664 cells, goat anti human IgG1 FITC [panel Rhesus monkey]
T3 construct: whole, on cells
T3 sequence: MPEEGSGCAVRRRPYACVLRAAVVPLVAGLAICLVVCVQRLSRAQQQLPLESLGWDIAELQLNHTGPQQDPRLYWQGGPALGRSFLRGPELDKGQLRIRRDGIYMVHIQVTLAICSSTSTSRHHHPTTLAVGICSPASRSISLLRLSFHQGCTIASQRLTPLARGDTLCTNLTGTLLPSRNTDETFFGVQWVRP

B1: ARGX-110 (non-fucosylated 41D12 human IgG1) (antibody, V domains shown)
VH: EVQLVESGGGLVQPGGSLRLSCAASGFTFSVYYMNWVRQAPGKGLEWVSDINNEGGTTYYADSVKGRFTISRDNSKNSLYLQMNSLRAEDTAVYYCARDAGYSNHVPIFDSWGQGTLVTVSS
VL: QAVVTQEPSLTVSPGGTVTLTCGLKSGSVTSDNFPTWYQQTPGQAPRLLIYNTNTRHSGVPDRFSGSILGNKAALTITGAQADDEAEYFCALFISNPSVEFGGGTQLTVLG
notes: also called 41D12 (ARGX-110)
Question: With B1 as the binder, how does the “Signal in FACS of ARGX-110/signal in FACS of SGN70” value (“Signal in FACS of ARGX-110/signal” for short) [1] read?
Answer: The value was 3.8 ratio.

Question: And the “Signal in FACS of ARGX-110/signal” value [2]?
Answer: The value was 1.4 ratio.

Question: What about the “Signal in FACS of ARGX-110/signal” value [3] of the same binder?
Answer: Its value is 1.2 ratio.

Question: What about the “Signal in FACS of ARGX-110/signal” value [4] of the same binder?
Answer: Its value is 2.1 ratio.

Question: And the “Signal in FACS of ARGX-110/signal” value [5]?
Answer: Its value is 1.2 ratio.

Question: And the EC50 [6]?
Answer: Its EC50 is 0.022 µg/mL.

Question: And the “EC50 (read off the curve)” value [7]?
Answer: Its value is roughly 0.1 µg/mL.

Question: What about the “EC50 (read off the curve)” value [8] of the same binder?
Answer: The value was roughly 0.2 µg/mL.
